The supplement of paper PMC10567573
± gives the standard deviation.

Experiment: protein stability index of a GFP-peptide fusion (GPS, HEK-293T) (PSI 1-6); higher = more stable
Conditions: c terminus: a fixed tail appended
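Further: 24-mer peptide tiles fused after GFP, lentivirally expressed, FACS-sorted into six equal bins by GFP/DsRed ratio, decoded by Illumina sequencing, PSI is the read-weighted mean bin number.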

Row | Sequence | protein stability index (treatment: DMSO) | protein stability index (treatment: MLN4924 1 uM, 8 h)
1 | VVLPGAVSLRYSGATAASETLSGH [ADAMTS4] | 2.95 ± 0.46 | 2.96 ± 0.41
2 | VVNKYQINGLQAWLLTHLLWFANA [DHCR7] | 2.9 ± 0.28 | 2.75 ± 0.34
3 | VVQEPPGRASRFLQSISWDPEDFE [TLE6] | 4.24 ± 0.33 | 4.65 ± 0.45
4 | VVVSVAGAFRKGKSFILDFMLRYL [ATL3] | 2.55 ± 0.3 | 2.68 ± 0.34
5 | VYDQAVSIFYDLPQGSGFCLGQLN [SMAD6] | 2.03 ± 0.24 | 2.16 ± 0.32
6 | VYLANQAKNQSDEAKEAKGSGYEK [RTP4] | 4.96 ± 0.52 | 5.08 ± 0.21
7 | WASTSPGTDLPLSEIPRGVRVALD [TRIM15] | 3.91 ± 0.29 | 3.87 ± 0.26
8 | WCLVQICEKYLPGYYSEKLEAIQL [TBC1D10A] | 2.74 ± 0.48 | 3.57 ± 0.41
9 | WDERGRAAAYSPSEALLYALVHDH [ANKRD9] | 3.02 ± 0.37 | 2.95 ± 0.27
10 | WEQPWASEVFGPERMPPSGAARSF [PXN] | 3.73 ± 0.33 | 3.45 ± 0.11
11 | WEWNELIPQGICPVGRSWHSLTPV [KLHDC2] | 2.16 ± 0.27 | 2.27 ± 0.21
12 | WFPLHLSRILKKTVYNEMDKNRCE [EDNRA] | 2.6 ± 0.84 | 1.98 ± 0.4
13 | WGPLQDSLEHTLRVAIAHYQDDPD [TSPAN10] | 3.54 ± 0.28 | 3.69 ± 0.22
14 | WKDLTLSTRPEEGCSLHEEDTQRH [TCAP] | 5.08 ± 0.25 | 5.13 ± 0.28
15 | WKIAPAMAAGNTVIAKPSELTSVT [ALDH8A1] | 3.12 ± 0.41 | 3.17 ± 0.53
16 | WLEDEPGRGAQGENERVRGLETGD [ZSWIM9] | 5.49 ± 0.32 | 5.48 ± 0.18
17 | WLNKEKGIFKIEDSAQVARLWGIR [SPDEF] | 2.63 ± 0.32 | 2.35 ± 0.17
18 | WSGEVKDKNVQVVELPIVDSLHPR [FUT8] | 4.17 ± 0.17 | 4.29 ± 0.15
19 | WTLKLDGNLQLDCLAQGWKQYQQR [RTP4] | 2.2 ± 0.26 | 2.55 ± 0.26
20 | YAIKRSKKPLAGSVDEQNALREVY [WEE1] | 3.3 ± 0.32 | 3.16 ± 0.25
21 | YAPEAPYTSPDKLKDIFMFITRQL [PDS5B] | 2.59 ± 0.28 | 1.97 ± 0.34
22 | YCVPRGNRRRFRVRQPILQYRWDM [BEX1] | 2.46 ± 0.21 | 2.55 ± 0.17
23 | YDYVREFKRSTGTWHHTKPLLPSD [GAN] | 3.2 ± 0.32 | 3.27 ± 0.21
24 | YESGYAFLPDLLIFQMVIICLMCV [SMG5] | 3.23 ± 0.32 | 3.16 ± 0.57

Row | Sequence | protein stability index (treatment: DMSO) | protein stability index (treatment: MLN4924 1 uM, 8 h)
25 | YGHPAGIDYKTTTILLDGRRVKLQ [RAB40B] | 2.87 ± 0.28 | 3.14 ± 0.11
26 | YKREILERVDGRRLVYKFGKNSSG [ELF3] | 3.1 ± 0.22 | 3.21 ± 0.44
27 | YKYCDHENAAFKDVALVLTVLLEE [TOR1AIP2] | 2.5 ± 0.43 | 2.8 ± 0.52
28 | YLKSCRRMKKNGMEMTRPTPPHLT [NOL4L] | 2.89 ± 0.19 | 2.96 ± 0.25
29 | YLTGTINGDPESVASLHWDGGALL [ADAMTS4] | 2.88 ± 0.59 | 3.1 ± 0.32
30 | YNALKLFMEMNQKLFDDCTQQFKA [PPP2R5C] | 2.46 ± 0.22 | 2.2 ± 0.24
31 | YQELLRVCCCELGVNPDQVEKIRK [ANKRD40] | 2.41 ± 0.51 | 2.55 ± 0.22
32 | YQLFEELGKGAFSVVRRCVKVLAG [CAMK2A] | 2.9 ± 0.64 | 2.64 ± 0.39
33 | YRDLAGGTGRSAKEQVLRKGTENL [FCHSD1] | 4.16 ± 0.18 | 4.2 ± 0.33
34 | YRHQRLHTGERPYECTVCKKRFTR [ZNF449] | 2.75 ± 0.56 | 3.5 ± 0.53
35 | YRIRQVNIYYYLEDDSMSVIEPVV [EFHC1] | 2.87 ± 0.31 | 2.55 ± 0.55
36 | YRKKSAEFPDFYDSEEPVSTHQEA [CHGB] | 4.97 ± 0.12 | 5.01 ± 0.32
37 | YSAAALQEAMKRLRGAKAFRLPGL [FCHO1] | 2.3 ± 0.076 | 2.42 ± 0.2
38 | YSECIVTVGGEERVSRKPTAAMRC [GAN] | 3.56 ± 0.32 | 3.85 ± 0.66
39 | YSIQERRPQLPQVLQHVRLPLLSP [KLHL20] | 3.4 ± 0.18 | 3.42 ± 0.32
40 | YTATEQEMQQQMSLGELCHPVPLS [TRIM14] | 4.26 ± 0.23 | 4.14 ± 0.27
41 | YTGMFTSSPDLDDMKLIILANRLC [RHOBTB2] | 2.73 ± 0.51 | 2.7 ± 0.51
42 | YTVRAPVGVAGLISPWNLPLYLLT [ALDH8A1] | 2.49 ± 0.47 | 2.14 ± 0.07
43 | YVFFVLAVMEHAESKMYATSPYSD [PTPRD] | 3.02 ± 0.82 | 3.28 ± 0.78
44 | YVQEKRDGLKRRQQLEEELLRAKI [RAD54B] | 2.71 ± 0.66 | 3.38 ± 0.78
45 | YWTKYYDFKNPIIEKYLRRQLTKP [OAS1] | 1.94 ± 0.33 | 2.11 ± 0.19
46 | YYLALLLSLLVMVISPVIQLQPTF [NSDHL] | 2.68 ± 0.37 | 2.91 ± 0.64
47 | YYVLEPRVVDGTPCSPDSSSVCVQ [ADAMTS4] | 3.33 ± 0.35 | 3.21 ± 0.28
